Source: patent US20190389941A1
Substitutions are numbered along the chain they refer to.

B1: G1098, P0DOX5 218-449 (Fc fusion)
chain: EPKSCDKTHTCPPCPAPELLGGPSVFLFPPKPKDTLMISRTPEVTCVVVDVSHEDPEVKFNWYVDGVEVHNAKTKPREEQYNSAYRVVSVLTVLHQDWLNGKEYKCKVSNKALPAPIEKTISKAKGQPREPQVYTLPPSREEMTKNQVSLTCLVKGFYPSDIAVEWESNGQPENNYKTTPPVLDSDGSFFLYSKLTVDKSRWQQGNVFSCSVMHGALHNHYTQKYLSLSPGKERKCCVECPPCP
B2: G1126, P0DOX5 218-449 (Fc fusion)
chain: B1 chain with E130R

Molecular target: complement proteins
Assay: cell-based or functional assay

Binder	CDC inhibition IC50 (anti-CD20-coated Will-2 cells plus serum)
B1	10 µg/mL
B2	5 µg/mL
